One test deals with HSV-2. The experiment in a line: HSV-2 cytopathic effect inhibition in Vero cells. It counts as cell-based, Herpes Simplex Virus-2. The note with it: HSV-2, Vero cells. How it is done:
The Vero cells are propagated in Dulbecco's modified essential medium (DMEM) containing phenol red with 10% horse serum, 1% glutamine and 1% penicillin-streptomycin, while the CPE inhibition assays are performed in DMEM without phenol red with 2% FBS, 1% glutamine and 1% Pen-Strep. On the day preceding the assays, cells were trypsinized (1% trypsin-EDTA), washed, counted and plated out at 10^4 cells/well in a 96-well flat-bottom BioCoat® plates (Fisher Scientific, Pittsburgh, Pa.) in a volume of 100 μl/well. The next morning, the medium was removed and a pre-titered aliquot of virus was added to the cells. The amount of virus used is the maximum dilution that would yield complete cell killing (>80% ) at the time of maximal CPE development. Cell viability is determined using a CellTiter 96® reagent (Promega) according to the manufacturer's protocol, using a Vmax plate reader (Molecular Devices, Sunnyvale, Calif.). Compounds are tested at six concentrations each, diluted in assay medium in a half-log series. Acyclovir was used as a positive control. Compounds are added at the time of viral infection. The average background and drug color-corrected data for percent CPE reduction and percent cell viability at each concentration are determined relative to controls and the IC50 calculated relative to the TC50.
On the technique in general: Protection from cytopathic effect is a common read-out in antiviral testing.

The subject of another test is HHV-8. The experiment in a line: HHV-8 replication in BCBL-1 cells (TaqMan PCR, CellTiter96). In kind it is cell-based, Human Herpesvirus-8. The note with it: six days.
Another test has as its system OAS activity. The experiment in a line: OAS activity in serum and plasma of mice (OAS radioimmunoassay). It counts as in vivo, mouse. The settings on record: i.v., 10 μg–250 μg. The method, then: Serum and plasma were isolated from mice at varying time points, and OAS activity was measured using the OAS radioimmunoassay (RIA) kit from Eiken Chemicals (Tokyo, Japan).

Test [1] deals with ISG induction (OAS, Pkr, Mx1) in AML-12 cells. The experiment in a line: ISG induction in the mouse liver cell line AML-12 (real-time PCR). In kind it is cell-based. The settings on record: AML-12, 20 ng/ml, 48 hour time point. The method, then:
AML-12 cells were plated in 6-well plates in complete DMEM media at a concentration of 2×10^6 cells/well. […] As a control, cells were either stimulated with mouse IFNα (positive control) or unstimulated (negative). […] RNA was isolated from cell pellets using RNAEasy-kit® (Qiagen, Valencia, Calif.). RNA was treated with DNase (Millipore, Billerica, Mass.) to clean RNA of any contaminating DNA. cDNA was generated using Perkin-Elmer RT mix. ISG gene induction was evaluated by real-time PCR using primers and probes specific for mouse OAS, Pkr and Mx1. To obtain quantitative data, HPRT real-time PCR was duplexed with ISG PCR. A standard curve was obtained using known amounts of RNA from IFN-stimulated mouse PBLs. All data are shown as expression relative to internal HPRT expression.
All data shown were expressed as fold relative to HPRT gene expression
For orientation: Real-time PCR tracks product formation cycle by cycle.

A further test relates to BVDV. Briefly: BVDV cytopathic effect inhibition in MDBK bovine kidney cells. It counts as cell-based, bovine viral diarrhea virus. The method, then: The MDBK cells were propagated in Dulbecco's modified essential medium (DMEM) containing phenol red with 10% horse serum, 1% glutamine and 1% penicillin-streptomycin. CPE inhibition assays were performed in DMEM without phenol red with 2% FBS, 1% glutamine and 1% Pen-Strep. On the day preceding the assays, cells were trypsinized (1% trypsin-EDTA), washed, counted and plated out at 10^4 cells/well in a 96-well flat-bottom BioCoat® plates (Fisher Scientific, Pittsburgh, Pa.) in a volume of 100 μl/well. The next day, the medium was removed and a pre-titered aliquot of virus was added to the cells. The amount of virus was the maximum dilution that would yield complete cell killing (>80% ) at the time of maximal CPE development (day 7 for BVDV). Cell viability was determined using a CellTiter96® reagent (Promega) according to the manufacturer's protocol, using a Vmax plate reader (Molecular Devices, Sunnyvale, Calif.). Test samples were tested at six concentrations each, diluted in assay medium in a half-log series. IFNα and RIBAVIRIN® were used as positive controls. Test sample were added at the time of viral infection. The average background and sample color-corrected data for percent CPE reduction and percent cell viability at each concentration were determined relative to controls and the IC50 calculated relative to the TC50.

The test system of test [2] is human marrow mononuclear cells. Briefly: Bone marrow expansion assay (Alamar Blue). In kind it is cell-based. The note with it: in the presence of IL-2 or IL-15. (In general: Alamar Blue is a resazurin reagent that responds to reducing activity.)
Test [3] concerns ISG gene expression (OAS, Pkr, Mx1) in liver, spleen and blood. The experiment in a line: ISG gene expression in liver, spleen and blood of injected mice (real-time PCR). In kind it is in vivo, mouse. The note with it: mice. How it is done:
Mice were sacrificed at various time points (1 hr-48 hr). Spleens and livers were isolated from mice, and RNA was isolated. RNA was also isolated from the blood cells. The cells were pelleted and RNA isolated from pellets using RNAEasy®-kit (Qiagen). RNA was treated with DNase (Amicon) to rid RNA of any contaminating DNA. cDNA was generated using Perkin-Elmer RT mix (Perkin-Elmer). ISG gene induction was measured by real-time PCR using primers and probes specific for mouse OAS, Pkr and Mx1. To obtain quantitative data, HPRT real-time PCR was duplexed with ISG PCR. A standard curve was calculated using known amounts of IFN-stimulated mouse PBLs. All data are shown as expression relative to internal HPRT expression.
Results shown are fold expression relative to HPRT gene expression. […] The data shown is the average expression from 5 different animals/group.
Mice were injected with 100 μg of proteins i.v. Data shown is fold expression over HPRT expression from livers of mice. Similar data was obtained from blood and spleens of mice.

For a further test, the system named is EMCV. The experiment in a line: EMCV antiviral assay (MTT dye-uptake) in HepG2 cells. It counts as cell-based, encephalomyocarditis virus. The settings on record: cytokine 24 hours before EMCV, OD570.
Test [4] relates to ISGs OAS, Pkr and Mx1 in spleens. Briefly: ISG expression in spleens of Eu-lck human IL-29 transgenic mice. In kind it is in vivo, mouse. The settings on record: spleen of IL-29 Tg mice. The method, then: This promoter is active in T cells and B cells. Transgenic mice and their non-transgenic littermates (n=2/gp) were sacrificed at about 10 weeks of age. Spleens of mice were isolated. RNA was isolated from cell pellets using RNAEasy-kit® (Qiagen). RNA was treated with DNase to clean RNA of any contaminating DNA. cDNA was generated using Perkin-Elmer RT® mix. ISG gene induction was evaluated by real-time PCR using primers and probes (5′ FAM, 3′ NFQ) specific for mouse OAS, Pkr and Mx1. To obtain quantitative data, HPRT real-time PCR was duplexed with ISG PCR. Furthermore, a standard curve was obtained using known amounts of IFN stimulated mouse PBLs. All data are shown as expression relative to internal HPRT expression.
All data shown are fold expression relative to HPRT gene expression. The average expression in two mice is shown

For the next test, the system named is adenoviral vector, AdGFP. Briefly: Adenoviral vector (AdGFP) liver pathology in mice. The note with it: for liver and inflammation scores (histology): vs the PBS-treated group.
The subject of the next test is Mouse B cells. Briefly: Mouse B cell 3H-thymidine incorporation. In kind it is cell-based. The method, then:
Mouse B cells were isolated from 2 Balb/C spleens (7 months old) by depleting CD43+ cells using MACS magnetic beads. Purified B cells were cultured in vitro with LPS, anti-IgM or anti-CD40 monoclonal antibodies. Mouse IL-28 or mouse IFNα was added to the cultures and ^3H-thymidine was added at 48 hrs. and ^3H-thymidine incorporation was measured after 72 hrs. culture.

Test [5] has as its system ISRE signaling in HepG2 cells. Briefly: ISRE-luciferase signal transduction reporter assay in HepG2 cells. The settings on record: 100 ng/ml ligand, 4-hour; RLU over medium alone. It counts as cell-based, human.
[6] abbreviates: average of two mice (Non-Tg 4.5).

As for IFNα, the antiviral activity result in the test with HSV-2 was “no antiviral activity”.

B1: IL-28A: human IL-28A polypeptide, previous designation zcyto20 (SEQ ID NOS: 2, 18, 36) (protein, listed as Homo sapiens)
chain: MKLDMTGDCTPVLVLMAAVLTVTGAVPVARLHGALPDARGCHIAQFKSLSPQELQAFKRAKDALEESLLLKDCRCHSRLFPRTWDLRQLQVRERPMALEAELALTLKVLEATADTDPALVDVLDQPLHTLHHILSQFRACIQPQPTAGPRTRGRLHHWLYRLQEAPKKESPGCLEASVTFNLFRLLTRDLNCVASGDLCV
modifications: SIGNAL (1)...(25)
Take B1: in the test on HHV-8, the “IC50, extracellular HHV-8 DNA” value turned out to be 1 µg/mL. In addition, the “OAS activity in the serum and plasma of mice” value with OAS activity is recorded as “induced OAS activity”. Further, in test [1], the Mx1 expression is recorded as 0.06 fold relative to HPRT gene expression, the OAS expression is listed as 0.04 fold relative to HPRT gene expression and the PkR expression is 0.02 fold relative to HPRT gene expression. In the test on BVDV, the “IC50, inhibition of cell death induced by BVDV” value worked out at 0.02 µg/mL.

B2: IL-29: human IL-29 polypeptide, previous designation zcyto21 (SEQ ID NOS: 4, 20, 38) (protein, listed as Homo sapiens)
chain: MAAAWTVVLVTLVLGLAVAGPVPTSKPTTTGKGCHIGRFKSLSPQELASFKKARDALEESLKLKNWSCSSPVFPGNWDLRLLQVRERPVALEAELALTLKVLEAAAGPALEDVLDQPLHTLHHILSQLQACIQPQPTAGPRPRGRLHHWLHRLQEAPKKESAGCLEASVTFNLFRLLTRDLKYVADGNLCLRTSTHPEST
modifications: SIGNAL (1)...(19)
Broadly, the EC50 is the concentration giving half of the maximal effect. A low value points to greater potency. With B2, the “IC50, extracellular HHV-8 DNA” value with HHV-8 was determined as 6.5 µg/mL. Moreover, the “expansion of bone marrow cells” value in test [2] is on record as “small inhibition”. Also, the “time of peak expression of ISGs after injection” value in [3] is 1 to 6 h. This molecule also returned an EC50 in the test with EMCV of 0.0006 µg/mL. Moreover, the results for the Mx1 expression in test [4] (average of two mice (Non-Tg 3.5)) and in [1] were 21 fold expression relative to HPRT gene expression and 0.07 fold relative to HPRT gene expression, respectively. Also, the figures for the OAS expression in test [4] (setting [6]) and in test [1] were 12 fold expression relative to HPRT gene expression and 0.04 fold relative to HPRT gene expression, respectively. Besides, the PkR expression is 8 fold expression relative to HPRT gene expression in test [4] (setting [6]) and 0.02 fold relative to HPRT gene expression in test [1]. For the same molecule, the “liver histology: sinusoidal cells, mitotic figures, changes in the hepatocytes” value in the test with adenoviral vector, AdGFP (vs the PBS treatment group) is “less proliferation of sinusoidal cells, fewer mitotic figures and fewer changes in the hepatocytes”. Besides, the “liver and inflammation scores (histology)” value with adenoviral vector, AdGFP was “lower liver and inflammation scores”. The “IC50, inhibition of cell death induced by BVDV” value in the test on BVDV amounted to 0.19 µg/mL.

B3: Zcyto24: previous designation for mouse IL-28A (SEQ ID NO: 8); mouse IL-28 (zcyto24) in b234 (protein, listed as Mus musculus)
chain: MKPETAGGHMLLLLLPLLLAAVLTRTQADPVPRATRLPVEAKDCHIAQFKSLSPKELQAFKKAKDAIEKRLLEKDLRCSSHLFPRAWDLKQLQVQERPKALQAEVALTLKVWENMTDSALATILGQPLHTLSHIHSQLQTCTQLQATAEPRSPSRRLSRWLHRLQEAQSKETPGCLEASVTSNLFRLLTRDLKCVANGDQCV
In the case of B3, the “3H-thymidine incorporation by mouse B cells” value in the test on Mouse B cells (stimulated with LPS or anti-IgM, IFNα 10 ng/ml, mouse IL-28 any concentration incl. 1000 ng/ml) is “did not inhibit”. The “3H thymidine incorporation by mouse B cells” value with Mouse B cells (stimulated with anti-CD40 MAb) is recorded as “increased”. Moreover, the “Fold Inductn. of ISRE signaling” value in [5] was 4.7 fold. Also, in test [1], the Mx1 expression is listed as 0.08 fold relative to HPRT gene expression, the OAS expression is recorded as 0.04 fold relative to HPRT gene expression and the PkR expression is recorded as 0.02 fold relative to HPRT gene expression. Moreover, the “liver and inflammation scores (histology)” value in the test with adenoviral vector, AdGFP was “lower liver and inflammation scores”.

The values above are taken from patent publication US7135170B2 (ZymoGenetics, Inc., priority 2002, dated 2006).
